T1: Boi1 SH3 (BOI1_YEAST), P38041
T1 chain: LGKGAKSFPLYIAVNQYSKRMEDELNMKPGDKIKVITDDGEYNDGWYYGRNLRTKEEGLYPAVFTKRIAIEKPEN

T2: Boi2 SH3 (BOI2_YEAST), P39969
T2 chain: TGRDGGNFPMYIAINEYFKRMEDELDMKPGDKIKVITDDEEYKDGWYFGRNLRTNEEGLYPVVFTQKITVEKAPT

T3: Myo5 SH3 (MYO5_YEAST), Q04439
T3 chain: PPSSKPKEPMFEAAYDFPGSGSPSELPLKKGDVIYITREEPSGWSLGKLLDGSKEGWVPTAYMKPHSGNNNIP

T4: Rvs167 SH3 (RV167_YEAST), P39743
T4 chain: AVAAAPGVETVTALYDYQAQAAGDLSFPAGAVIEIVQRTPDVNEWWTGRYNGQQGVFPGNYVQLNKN

T5: Yfr024 SH3 (LSB3_YEAST), P43603
T5 chain: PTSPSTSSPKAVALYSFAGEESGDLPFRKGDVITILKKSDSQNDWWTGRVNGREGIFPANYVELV

T6: Yhr016c SH3 (YSC84_YEAST), P32793
T6 chain: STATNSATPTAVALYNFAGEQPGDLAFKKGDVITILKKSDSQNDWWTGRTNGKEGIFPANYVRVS

B1: YDR283C 1060-1073 (peptide)
chain: NAPPRIFPKAPIYG
B2: YLL010C 80-93 (peptide)
chain: NDNEKKKPSSPTAA
B3: YJL041W 186-199 (peptide)
chain: NDDKKTEPDKPAFS
B4: YFR038W 287-300 (peptide)
chain: NEFAKFAPDLPVLK
B5: YBR108W 539-552 (peptide)
chain: NAPERAVPILPPRN
B6: YMR072W 36-49 (peptide)
chain: NELIKQGPKRPTSA
B7: YIL095W 742-755 (peptide)
chain: NGKDKSRPPRPPPK
B8: YER038C 415-428 (peptide)
chain: MYGSKFIPFGPKSQ
B9: YHR108W 109-122 (peptide)
chain: NELVKRFPGHPPLR
B10: YKL204W 475-488 (peptide)
chain: NFPQRMMPPPPGLV
B11: YBR156C 157-170 (peptide)
chain: NESEKSSPWSPYKV
B12: YBR195C 105-118 (peptide)
chain: NDLVKRFPEQPPLR
B13: YKR031C 861-874 (peptide)
chain: MYDRKVIPRMPWHD
B14: Q0045 434-447 (peptide)
chain: NGMPRRIPDYPDAF
B15: YDL126C 668-681 (peptide)
chain: NAQLRKTPLEPGLE
B16: YOR188W 2-15 (peptide)
chain: NDMAKPLPTPPTAE

Target: T1, Boi1 SH3 (BOI1_YEAST), P38041
Test: SPOT array

Binder	normalised SPOT signal, Boehringer light units (BLU); mean over the file's lines of this peptide
B1	8550
B2	212
B3	52.4
B4	24.4
B5	3280
B6	462
B7	664
B8	131
B9	733
B10	228
B11	96.5
B12	75800
B13	7810
B14	404
B15	156
B16	71

Target: T2, Boi2 SH3 (BOI2_YEAST), P39969
Test: SPOT array

Binder	normalised SPOT signal, Boehringer light units (BLU); mean over the file's lines of this peptide
B1	40.1
B2	61
B3	17.3
B4	12.3
B5	83
B6	22
B7	31.9
B8	326
B9	7.9
B10	28.4
B11	28.4
B12	4920
B13	395
B14	318
B15	88.8
B16	54

Target: T3, Myo5 SH3 (MYO5_YEAST), Q04439
Test: SPOT array

Binder	normalised SPOT signal, Boehringer light units (BLU); mean over the file's lines of this peptide
B1	168
B2	98.5
B3	140
B4	135
B5	741
B6	176
B7	2620
B8	290
B9	300
B10	618
B11	222
B12	21400
B13	357
B14	223
B15	176
B16	114

Target: T4, Rvs167 SH3 (RV167_YEAST), P39743
Test: SPOT array

Binder	normalised SPOT signal, Boehringer light units (BLU); mean over the file's lines of this peptide
B1	156
B2	80.7
B3	47.9
B4	69
B5	16500
B6	60.6
B7	127
B8	375
B9	55.2
B10	67.9
B11	74.7
B12	23000
B13	1490
B14	338
B15	116
B16	56.7

target: Sho1 SH3 (SHO1_YEAST), P40073; test: SPOT array
Sequence (P40073 295-366): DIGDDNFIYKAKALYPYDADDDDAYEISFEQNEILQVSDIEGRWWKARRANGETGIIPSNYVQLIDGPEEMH

Binder	normalised SPOT signal, Boehringer light units (BLU); mean over the file's lines of this peptide
B1	140
B2	39.5
B3	26
B4	99.4
B5	52.7
B6	32.2
B7	2640
B8	145
B9	37.2
B10	74.5
B11	26.5
B12	12100
B13	569
B14	28.9
B15	48.6
B16	13000

Target: T5, Yfr024 SH3 (LSB3_YEAST), P43603
Test: SPOT array

Binder	normalised SPOT signal, Boehringer light units (BLU); mean over the file's lines of this peptide
B1	2080
B2	36.9
B3	63.4
B4	132
B5	24400
B6	246
B7	12900
B8	898
B9	211
B10	679
B11	408
B12	1590
B13	1600
B14	1300
B15	371
B16	710

Target: T6, Yhr016c SH3 (YSC84_YEAST), P32793
Test: SPOT array

Binder	normalised SPOT signal, Boehringer light units (BLU); mean over the file's lines of this peptide
B1	186
B2	20.6
B3	37.1
B4	7.9
B5	36600
B6	17.2
B7	162
B8	118
B9	101
B10	95.9
B11	30.5
B12	1430
B13	742
B14	858
B15	79.9
B16	203

— PMC314469, “Protein Interaction Networks by Proteome Peptide Scanning” (PLoS Biology, 2004)
